Positions count from the first letter of the chain named. One block for each binder: values may come before it.
What was measured:
[1] = target: T1, recombinant human GFRα2-Fc chimera (R&D Systems) (human, UniProt O00451 22-441); test: capture on GFRα2-Fc held on Protein G spin column (after heparin column enrichment), 1.0 M NaCl wash, elution with 2.0 M MgCl2; eluate on non-reducing 15% SDS-PAGE, Coomassie stain
T1 construct: Bought reagent; also called GFRalpha2-Fc fusion protein; soluble recombinant GFRα2-Fc chimera; not shown: Fc portion of human IgG1
T1 sequence (looked up): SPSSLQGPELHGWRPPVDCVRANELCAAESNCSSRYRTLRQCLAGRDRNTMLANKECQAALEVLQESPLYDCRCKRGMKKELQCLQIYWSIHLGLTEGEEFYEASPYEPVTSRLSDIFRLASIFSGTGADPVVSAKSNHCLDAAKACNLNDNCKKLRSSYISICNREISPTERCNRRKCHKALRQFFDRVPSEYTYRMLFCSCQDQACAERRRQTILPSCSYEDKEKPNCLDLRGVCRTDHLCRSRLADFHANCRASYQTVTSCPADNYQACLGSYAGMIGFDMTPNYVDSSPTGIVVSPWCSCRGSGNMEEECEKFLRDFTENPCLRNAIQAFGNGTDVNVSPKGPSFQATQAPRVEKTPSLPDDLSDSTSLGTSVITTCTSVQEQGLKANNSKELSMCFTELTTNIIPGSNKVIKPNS
Experimental: Media from NRTN-expressing CHO cells (QMCF Technology at Icosagen Ltd) was thawed at room temperature. HITRAP™ Heparin HP columns (1 ml, GE Healthcare) were equilibrated with 10 ml of 10 mM Hepes, pH 7.2 and 1-10 ml of undiluted media was applied with a syringe according to the manufacturer's instructions. The media was collected and run through the column a second time. The columns were washed with 10 ml of 0.2 M NaCl in 10 mM Hepes, pH 7.2. The NRTN enriched samples were eluted with 5×600 μl of 10 mM Hepes pH 7.2, 1.2 M NaCl. Fractions number two and three were collected and concentrated to a final volume of 50-65 μl, according to the manufacturer's instruction in AmiconUltra 0.5 ml 10K concentrators (Millipore). The samples were then diluted 1:10 with 10 mM Hepes pH 7.2 to a final concentration of NaCl around 120 mM. Soluble recombinant GFRα2-Fc chimera (10-200 μg, R&D Systems) was attached to Protein G HP SpinTrap columns (GE Healthcare) in PBS according to the manufacturer's instructions. The 1:10 diluted samples were added to the GFRα2 columns and incubated for at least one hour at +4° C. with mixing. The columns were first washed with 4×400 μl of cold 10 mM Hepes pH 7.2, 1.0 M NaCl and thereafter with 4×400 μl of cold 10 mM Hepes pH 7.2, 0.1 M NaCl. The NRTN samples were eluted with 5×200 μl of pre-warmed (25° C.) 10 mM Hepes pH 7.2, 2.0 M MgCl₂. The eluted fractions were immediately diluted (1:2) with 10 mM Hepes pH 7.2, 0.150 M NaCl and concentrated with AMICONULTRA™ 0.5 ml 10K concentrators. The samples were further diluted in the same buffer (1:2) and subsequently concentrated three times to yield a final concentration of around 125 mM MgCl₂, and 150 mM NaCl in 10 mM Hepes pH 7.2. Samples of the purified proteins as well as a commercially available batch of neurturin were analyzed using […], under non reducing conditions, and visualized via Coomassie staining.

[2] = target: T1, recombinant human GFRα2-Fc chimera (R&D …); test: precipitation from CHO medium with GFRα2-Fc and Protein G-Sepharose, western blot
Experimental: An aliquot of each media (400 μl) was incubated with recombinant human GFRα2-Fc chimera (0.4 μg, R&D Systems), antibodies to the V5-epitope (0.4 μg, Invitrogen) or antibodies to NRTN (0.4 μg, R&D Systems) for 1 h at +4° C. with mixing. Protein G has a strong affinity for antibodies from mouse and goat as well as for the Fc portion of human IgG₁ in the recombinant GFRα2-Fc chimera. Therefore Protein G-Sepharose was added to the samples and the incubation was continued for 1 h at +4° C. with mixing. After pelleting, the samples were eluted from the protein G-Sepharose with reducing Laemmli buffer and loaded on SDS-PAGE. For Western blot analysis of the V5-tagged variants of NRTN, an anti-V5 antibody (Invitrogen) was used with samples loaded on SDS-PAGE under reducing conditions. For Western blot analysis of the untagged variants of NRTN, an anti-NRTN antibody (R&D Systems) was used with samples loaded on SDS-page under non-reducing conditions.

binding result [1]: binds
B1: NRTN WT (ligand)
mature neurturin monomer of the disulfide-linked homodimer: ARLGARPCGLRELEVRVSELGLGYASDETVLFRYCAGACEAAARVYDLGLRRLRQRRRLRRERVRAQPCCRPTAYEDEVSFLDAHSRYHTVHELSARECACV
notes: also called purified untagged mature wild type neurturin made by the same method as the variants

binding result [1]: binds
B2: neurturin variant N2 (untagged, purified) (ligand)
chain: B1 mature neurturin monomer of the disulfide-linked homodimer with R54A, R61A, R63A
notes: Dimeric protein; also called NRTN N2; neurturin mutant N2

binding result [1]: binds
B3: neurturin variant N4 (untagged, purified) (ligand)
chain: B1 mature neurturin monomer of the disulfide-linked homodimer with R51A, R54Q, Q55G, R56Q, R57G, R58A, R60V, R61G, E62S
notes: Dimeric protein; also called NRTN N4; neurturin mutant N4

binding result [1]: binds
B4: neurturin variant N3 (untagged, purified) (ligand)
chain: B1 mature neurturin monomer of the disulfide-linked homodimer with R52A, R54A, R56A, R58A, R61A
notes: Dimeric protein; also called NRTN N3; neurturin mutant N3

binding result [1]: binds
B5: neurturin variant N1 (untagged, purified) (ligand)
chain: B1 mature neurturin monomer of the disulfide-linked homodimer with R52A, R56A, R58A
notes: Dimeric protein; also called NRTN N1; neurturin mutant N1

binding result [2]: binds
B6: V5-tagged wild-type neurturin (ligand)
chain: ARGKPIPNPLLGLDSTSGARLGARPCGLRELEVRVSELGLGYASDETVLFRYCAGACEAAARVYDLGLRRLRQRRRLRRERVRAQPCCRPTAYEDEVSFLDAHSRYHTVHELSARECACV
notes: Secreted from transiently transfected CHO cells and used as crude conditioned medium; also called NRTN WT; E779

binding result [2]: binds
B7: V5-tagged neurturin variant NV3 (ligand)
chain: B6 chain with R70A, R72A, R74A, R76A, R79A
notes: Crude conditioned medium of transfected CHO cells; also called NRTN NV3; NV3 (from N3)

binding result [2]: binds
B8: V5-tagged neurturin variant NV2 (ligand)
chain: B6 chain with R72A, R79A, R81A
notes: Crude conditioned medium of transfected CHO cells; also called NRTN NV2; NV2 (from N2)

binding result [2]: binds
B9: V5-tagged neurturin variant NV4 (ligand)
chain: B6 chain with R69A, R72Q, Q73G, R74Q, R75G, R76A, R78V, R79G, E80S
notes: Crude conditioned medium of transfected CHO cells; also called NRTN NV4; NV4 (from N4)

binding result [2]: binds
B10: V5-tagged neurturin variant NV1 (ligand)
chain: B6 chain with R70A, R74A, R76A
notes: Crude conditioned medium of transfected CHO cells; also called NRTN NV1; NV1 (from N1)
